From patent US20160237156A1

Columns and labels:
[1] = target: SNAP-tag-CXCR4 (Tag-lite labeled CXCR4 cells, Cisbio Bioassays) (UniProt P61073); assay: Tag-lite HTRF competition with 50 nM fluorescent SDF-1 on Tag-lite labeled CXCR4 cells
[2] = target: CXCR4 (human) (UniProt P61073); assay: cell-based or functional assay
[3] = target: SNAP-tag-CXCR4 (Tag-lite labeled CXCR4 cells, Cisbio Bioassays) (UniProt P61073); assay: Tag-lite HTRF competition with 50 nM fluorescent SDF-1, Cheng-Prusoff

Chain of SNAP-tag-CXCR4 (Tag-lite labeled CXCR4 cells, Cisbio Bioassays) (P61073 whole entry): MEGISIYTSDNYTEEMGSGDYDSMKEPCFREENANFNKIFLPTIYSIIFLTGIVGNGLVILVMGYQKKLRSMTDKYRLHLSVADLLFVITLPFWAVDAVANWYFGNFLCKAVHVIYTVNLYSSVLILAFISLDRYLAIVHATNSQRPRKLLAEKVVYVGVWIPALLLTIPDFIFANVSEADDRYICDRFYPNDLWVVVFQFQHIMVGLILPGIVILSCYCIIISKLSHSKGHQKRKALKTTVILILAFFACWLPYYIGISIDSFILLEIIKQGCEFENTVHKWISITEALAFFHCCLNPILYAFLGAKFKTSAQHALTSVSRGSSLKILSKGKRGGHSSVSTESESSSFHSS
Chain of CXCR4 (human) (P61073 whole entry): as above

- IC50 [1]: 4.4 nM
- inhibition of SDF-1 induced migration of Ramos cells, EC50 [2]: 2.1 nM
- Ki [3]: 0.97 nM
Substance: mouse anti-human CXCR4 monoclonal antibody (Clone 12G5, R&D system)
